The text below walks through data of the nanobody polyreactivity screen of Harvey et al. (2022).

The nature of this data set: yeast display, Sf9 membrane polyspecificity reagent, FACS + sequencing; frameworks hold sequencing errors. The procedure, abridged:
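Galactose induction of a Saccharomyces cerevisiae BJ5465 synthetic nanobody display library ran 36–48 hours. The cells were then stained for 1 hour at 4 °C with 10% biotinylated, detergent-solubilized Sf9 membrane reagent, pulled down on streptavidin microbeads and FACS-sorted into low and high (top ~1%) gates on expression and reagent-binding fluorescence. Labels for polyreactivity follow the gate of origin.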
Consider “QVQLVESGGGLVQAGGSLRLSCAASGGTFRSYTMGWYRQAPGKERELVAAISWGGSTYYADSVKGRFTISRDNAKNTVYLQMNSLKPEDTAVYYCAADYWSFYRKRDYWGQGTQVTVSS”, for which the “polyreactivity (PSR sort gate)” value is “low polyreactivity”.

As for “QVQLVESGGGLVQAGGSLRITCAASGRIFGLYAMGWNRQAPGKEREFVAASSWSGTRTNYADSVKGRFTISRDNAKNTVDLQMNSLKPEDTAVYYCAAAYVSYTGYYGQEYDYWGQGTQVTVSS”, the “polyreactivity (PSR sort gate)” value was “high polyreactivity”. For “QVQLVESGGGLVQAGGSLRLSCAASGRIFTIYAMGWYRQAPGKERELVAAISDRGTRTYYADSVKGRFTISRDNAKNTVYLQMISLKPEVTAVYYCATDALYTYGYDYWGQGTQVTVSS” the value was “low polyreactivity”; for “QVQLVESGGGLVQAGGSLRLSCAASGFTSGQYAMGWYRQAPGKERELVAAISWSGGSTYYADSVKGRFTISRDNAKNTVYLQMNSLKPEDTAVYYCAAGKTPQKYGGFNYWGQGTQVTVSS”, “high polyreactivity”; for “QVQLVESGGGLVQAGGSLRLSCAASGSIIFRYNMGWSRQAPGKERELVAAITTGGSTNYADSVKGRFTISRDNAKNTVSLQMNSLKPEDTAVYYCNRDNRRWTRAAVRVDFYYWGQGTQVTVSS”, “high polyreactivity”. With “QVQLVESGGGLVQAGGSLRLSCAASGSIFSGNAMGRYRQAPGKERELVAAISRSGGSTYYADSVKGRFTISRDNAKNTVYLQMNSLKPEDTAVYYCAAYRTHGPPRAIRFDYWGQGTQVTVSS”, the “polyreactivity (PSR sort gate)” value is recorded as “high polyreactivity”.

“QVQLVESGGGLVQAGGSLRLSCAASGSIFGRNAMGWYREAPGKERVLVAAINSGGSTNYADSVKGRFTISRDNAKNTVYLQMNSLKPEDTAVYYCAARTYSSGRYYGYVAFYYWGQGTQVTVSS”: the “polyreactivity (PSR sort gate)” value is given as “high polyreactivity”. For “QVQLVESGGGLVQAGGSLRLSCAASGFIYGFYVMGWYRQAPGKERELVAAITTSGDSTYYADSVKGRFTISRDNAKNTVFLQMNSLKPEDTAVYYCAADNVHSEYEYWGQGTQVTVSS” the value was “high polyreactivity”.

Regarding “QVQLVDSGGGLVQAGGSLRLSCAASGSIITYYAMGWYRQAPGKERELVAGISRRGASTYYADSVKGRFTISRDNAKNTVYLQMNSLNPEDTEVYYCAAVPYYYYGFDYWGQGTQVTVSS”, the “polyreactivity (PSR sort gate)” value is given as “high polyreactivity”.

Take “QVQLVESGGGLVQAGGSLRLSCAASGIIFQAYAMGWYRQAPGKERELVAAISYSGGSTYYADSVKGRFTISRDNAKNTVYLQMNCLKPEDTAVYYCAATFYGYFDSVFSWGYYYWGQGTQVTVSS”: the “polyreactivity (PSR sort gate)” value is listed as “low polyreactivity”.

With “QVQLVESGGGLVQAGGSLRLSCAASGNTFDRYAMGWYRQAPGKERELVAAITRSGGNTYYADSVKGRFTISRDNAKNTVYLQMNSLKPEDTAVYYCAAYFFPYYTGYGYWGQGTQVTVSS”, the “polyreactivity (PSR sort gate)” value was “high polyreactivity”. For the sequence “QVQLVESGGGLVQAGGSLRLSCAASGSIFVPYAMGWYRQAPGKERELVAAITYSDGSTYYADSVKGRFTISRDNEKNTVYLQMNSLKPEDTAVYYCATYPQYYFRYDYWGQGTQVTVSS”, the “polyreactivity (PSR sort gate)” value was “high polyreactivity”. For “QVQLVESGGGLVEAGGSLRLSCAASGRIFCYNAMGWYRQAPGKERELVAAIRSGGRTHYADSVKGRFTISRDNAKNTVTLQMNSLKPEDTAVYYCAARSVPYPYRRNPYDYWGQGTQVTVSS” the value was “high polyreactivity”. For “QVQLVESGGVLVQAGGILRLSCAASGRIFYGNTMGWYRQAHGKERELVAAISRSGGSTYYADSVKGRFTSSRDNAKNTVYLQMNSLKPEDTAVYYCAAKRSWGYDYWGLGTQVTVSS” the value was “high polyreactivity”; for “QVQLVESGGGLVQAGGSLRLSCAASGLSLQYYAMGWYSQAPGKDRELVAAISSRGVSTYYADSVKGRFTISRDNAKNTVYLQMNSLKPEETAVDYCNARQWRFGFVARGGKYNYWGQGTQVTVSS”, “high polyreactivity”.

With “QVQLVESGGGLVQAGGSLRLSCAASGSTLDRNTMGWYRAAPGKESELVAAITWSGGRTYYADSVKGRFTISRDNANNSVYLQLNSLKPEDTAVYYCNKDYWKRPVDEYDYWGQGTQVTVSS”, the “polyreactivity (PSR sort gate)” value is given as “high polyreactivity”. On to “QVQLVESGGGLVQAGGSLRLSCAASGTTLPYYAMGWYRQAPGKERELVAAITSSGGDTYYADSVKGRFTISRDNAKNTVYLQMNSLKPEDTAVYYCAKSYSARSTVRKLFYFAYDYWGQGTQVTVSS”, for which the “polyreactivity (PSR sort gate)” value is “low polyreactivity”.

Take “QVQLVESGGGLVQAGGSLRLSCAASGSTFGPNTMGWYRQAPRKERELVAAITSTGSTYYADSVKGRFTISRDNAKNTVYLQMNSLKPEDTAVYYCAARRYYGVYYAFYYWGQGTQVTVSS”: the “polyreactivity (PSR sort gate)” value is “high polyreactivity”.

As to “QVQLVESGGGLVQAGGSLRLSCAASGRIFYRNAMGWYRQAPGKERELVAGITRGGSTNYADSVKGRFTISRDNAKNTVYLQMNSLKPEDTAVYYCAKAIPAKFYSEAGYDYWGQGTQVTVSS”, the “polyreactivity (PSR sort gate)” value is “low polyreactivity”. With “QVQLVESGGGLVQAGGSLRLSCAASGRTFIVYPMGWYRQAPGKERELVAAISKRGGSTYYADSVKGRFTISRDNAKNPVYLQMNRLKPDDTAVYYCNAALSVELGYAYWGQGTQVTVSS”, the “polyreactivity (PSR sort gate)” value is recorded as “high polyreactivity”. For “QVQLVESGGCLVQAGGSLRLSCAASGFIFSTNAMAWYRQARGTERELVAAITGRGTNTYYADSVKGRFTISRDNAKNTVYLQMNSLKPEDTAVYYCAADGGSYSDYDYWGLGTQVTVSS” the value was “high polyreactivity”; for “QVQLVESGGGLVQAGGSLRLSCAASGRTFYRYAMGWYRQAPGKERELVAAITRRSGNTYYADSVKGRFTISRDNAKNTVYLQMNSLKPEDTAVYYCAADPETWSPHYESLGYYWGQGTQVTVSS”, “high polyreactivity”; for “QVQLVESGGGLVQAGGSLRLSCAASGITFVGNDMGWYRQAPGKERELVATISSSGTRTYYADSVKGRFTISRDNAKNTVYLQMNSLKQEDTAVYYCAARWRSYITYWFDYWGQGTQVTVSS”, “low polyreactivity”. As to “QVQLVESGGGLVQAGVSLRVSCAASGRTFSRYTMGWYRQAPGKEREMVAAISKRGGSTYYADSVKGRFTISRDNAKNTVYLQRNSLKPEETAVYYCNAYGLVGLVGVIMYYWGQGTQVTVSS”, the “polyreactivity (PSR sort gate)” value is given as “high polyreactivity”. For “QVQLVESGGGLVQAGGSLRLSCAASGITLFHYVMGWYRQAPGKERELVAVISSSGGSTYYADSVKVRFTISRDNAKNSVYLHMNSLKQVDTAVYYGAAKRYNYWGQGTQVTVSS”, the “polyreactivity (PSR sort gate)” value is listed as “high polyreactivity”.

As to “QVQLVESGGGLVQAGGSLRLSCAASGRTFQSYAMGWYRQEPGKERELVAAITITGGRTYYADSVKGRFTISRDNAKNTVYLQMNSLKPEDTAVYYCAAEEYSHYTLGYVYWGQGTQVTVSS”, the “polyreactivity (PSR sort gate)” value is reported as “low polyreactivity”. As for “QVQLVESGGGLVQAGGSLRLSCAASGYTLDGYAMGWYRQAPGKERDFVAAITFRGGGTYYADSVKGRFTISRDNSKNTVYLQMISLKPEDSAVYYCNADTYDPFPWGSDYWGQGTQVNVSS”, the “polyreactivity (PSR sort gate)” value is given as “high polyreactivity”.

“QVQLVESGGGLVQAGGSLRLSCAASGRTFYKNAIGWYRQAPGKERELVAAITATYYADSVKGRFTISRDNAKNTVYLQMNSLKPEDTAVYYCNAYLYPKQPLSPPYPTFEGGYCGQGTQVTVSS”: the “polyreactivity (PSR sort gate)” value was “low polyreactivity”. For “QVQLVESGGGLVQAGGSLRLSCAASGSTFRGYAMGWYRQAPGKERELVAAISRSGGSTYYADSVKGRFTISRDNAKNTVYLQMNSLKPEDTAVYYCNARSSKRSSRGYDYWGQGTQVTVSS”, the “polyreactivity (PSR sort gate)” value was “high polyreactivity”.

Regarding “QVQLVESGGGLVQAGGSLRLSCAASGLTFPFYTMGWYRQAPGKERELVAAISRRGGSTYYADSVKGRFTISRDNAKNTVYLQLNSLKPEDTAVYYCAADKYSWYDYWGQGTQVTVSS”, the “polyreactivity (PSR sort gate)” value was “low polyreactivity”. For “QVQLVESGGGLVQSGGSLRLSCAASGRTFYGNAMGWYRQAPGKERELVAAITSSGGSTYYADSVKGRFTISRDNAKNTVYLQMNSLKPEDNAVYYCAAYTYLEDFESWGQGTQVTVSS” the value was “high polyreactivity”. Next, “QVQLVESGGGLVQAGGSLRLSCAASGFTIYGYVMGWYRQAPGKVRELVAAISYSAGRTYYADSVKGRFTISRDNAKNTVYLQMNSLKPEDTAVYYCNAPSVGAAFDYCGQGTQVTVSS”: “high polyreactivity”; “QVQLVESGGGLVQAGGSLRLSCAASGSIFEYNDMGSYRQAPGKERELVAAITTGGRTSYADSVKGRFTISRDNAKYTVYLQMNSLKPEDTAVYYCNKDHSSYGASGYDYWGQGTQVTVSS”: “low polyreactivity”. In the case of “QVQLVESGGGLVQAGGSLRLICAASGRTFDLYAMGWCRQAPGKEREFVAAITKGGGSTYYADSVKGRFTISRDNAKNTVYLQMNSLKPEDTAVYYCAARKYKRIYRISSGIGYYWGQGTQVTVSS”, the “polyreactivity (PSR sort gate)” value is given as “high polyreactivity”. For “QVQLVESGGGLVQAGGSLRLSCAASGRISTTYSMGWYRPAPGKERELVAAITIGGGTNYADSVKGRFTISRDNAKNTVYLQMNSLKPEDTAVFYCNADRTASFAYDYWGQGTQVTVSS” the value was “low polyreactivity”; for “QVQLVESGGGLVQAGGSLRVSCAASGSIFIVYAMGWYRQAPGKDRELVATISSGGSTNYAVSVKGRFTISRDNAKNTVYVQMNTLKPEATAVYYCAAESYWGSGLVPGYDYWGQGTQGTVSS”, “low polyreactivity”. Next, “QVQLVESGGGLVQAGGSLRLSCAASGSIFGRNDMGWYRQAPGKERELVARITRGGSTNYADSVKGRFTISRDNAKNTVYLQMNSLKPEDTAVYYCAKEFKYWGYPYDYWGQGTQVTVSS”: “low polyreactivity”.

“QVQLVESGGGLVQAGGSLRLSCAASGNTFRFYAMGWYRQAPGKERELVADITRGGSTNYADSVKGRFTISRDNAKNTVYLQMNSLKPEDTAVYYCAARPWYYTSSFYYGRYDYWGQGTQVTVSS”: the “polyreactivity (PSR sort gate)” value was “high polyreactivity”.

Regarding “QVHLVESGGGLVQAGGSLRLSCAASGRTFIYYAMGWYRQAPGKERELVAAISSGGSTDYADSVKGRFTISRDNAKNTVYLQMNSLKPEDTAVYYCSAVVGYITYYGYDYWGQGTQVTVSS”, the “polyreactivity (PSR sort gate)” value was “low polyreactivity”.

As for “QVQLVESGGGLVQAGGSLRLSCAASGSTIYFNAMGRYRQAPGKERELAAGIRSSGGSTYYADSVKGRFTISRDNAKNTVYLQMISLKPEDTAVYYCAGVRYRELYWGQGTQVTVSS”, the “polyreactivity (PSR sort gate)” value is reported as “high polyreactivity”. Next, “QVQLVESGGGLVQAGGSLRLSCAASGRTFGRYAMGWYRQAPGKERELVAVINGGGSTYYADSVKGRFTISRDNAKNTVYLQMKSLKPEDTAVYYCNAGYYWGQGTQVTVSS”: “high polyreactivity”.
